{"source": "FireProtDB (doi:10.1021/bi00146a008)", "proteins": {"B1": {"name": "Lysozyme C wild type, P61626 (protein)", "chain": "MKALIVLGLVLLSVTVQGKVFERCELARTLKRLGMDGYRGISLANWMCLAKWESGYNTRATNYNAGDRSTDYGIFQINSRYWCNDGKTPGAVNACHLSCSALLQDNIADAVACAKRVVRDPQGIRAWVAWRNRCQNRDVRQYVQGCGV"}}, "details": "Homo sapiens, pH 2.8, Thermal, DSC, glycine-HCl 50 mM, reversible: yes, whole UniProt chain shown", "data": [{"protein": "B1", "values": [{"measurement": "heat capacity change of unfolding", "setting": "68.8 °C", "result": 1.58, "unit": "kcal/mol/K"}, {"measurement": "unfolding enthalpy (calorimetric)", "setting": "68.8 °C", "result": 120, "unit": "kcal/mol"}, {"measurement": "Tm", "result": 68.8, "unit": "°C"}, {"measurement": "heat capacity change of unfolding", "result": 1.58, "unit": "kcal/mol/K"}]}]}
